Assay [1] addresses T1, human CD22 domain5-7-His (human, UniProt P20273 414-687).
T1 construct: also called hCD22 domain5-7-His; not shown: His tag
T1 sequence: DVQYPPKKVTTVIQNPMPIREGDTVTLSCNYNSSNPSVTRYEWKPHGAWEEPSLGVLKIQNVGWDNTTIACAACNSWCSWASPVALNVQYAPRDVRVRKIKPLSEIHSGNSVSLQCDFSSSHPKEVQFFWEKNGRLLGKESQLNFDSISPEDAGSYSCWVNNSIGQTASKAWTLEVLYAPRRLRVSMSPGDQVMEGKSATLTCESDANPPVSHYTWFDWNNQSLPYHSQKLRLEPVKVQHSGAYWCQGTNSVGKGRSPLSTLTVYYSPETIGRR
Put plainly: ELISA, plate coated with human CD22 domain5-7-His.

In assay [2] the target is T2, rhesus monkey CD22-ECD-His protein (rhesus monkey, UniProt H9G1X2 18-686).
T2 construct: extracellular domain; also called monkey CD22 protein
T2 sequence: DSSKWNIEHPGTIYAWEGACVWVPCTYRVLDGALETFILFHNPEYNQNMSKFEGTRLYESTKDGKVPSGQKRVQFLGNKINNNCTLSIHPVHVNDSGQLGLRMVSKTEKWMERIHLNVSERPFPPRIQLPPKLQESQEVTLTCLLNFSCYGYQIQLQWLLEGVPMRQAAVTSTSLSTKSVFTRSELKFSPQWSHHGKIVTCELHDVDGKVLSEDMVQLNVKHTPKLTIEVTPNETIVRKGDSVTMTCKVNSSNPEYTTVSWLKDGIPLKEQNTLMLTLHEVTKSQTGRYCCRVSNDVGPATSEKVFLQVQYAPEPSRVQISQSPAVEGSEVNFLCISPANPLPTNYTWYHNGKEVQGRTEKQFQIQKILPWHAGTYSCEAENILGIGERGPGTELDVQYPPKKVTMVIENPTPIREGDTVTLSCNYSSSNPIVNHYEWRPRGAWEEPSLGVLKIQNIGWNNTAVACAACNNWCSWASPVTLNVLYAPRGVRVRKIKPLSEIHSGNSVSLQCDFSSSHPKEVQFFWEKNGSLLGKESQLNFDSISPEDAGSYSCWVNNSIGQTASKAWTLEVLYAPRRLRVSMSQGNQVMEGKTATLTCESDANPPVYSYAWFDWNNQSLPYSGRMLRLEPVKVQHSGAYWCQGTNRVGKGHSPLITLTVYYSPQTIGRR
Put plainly: SPR (Biacore), antibody captured on Protein A chip, rhesus CD22 in solution. For orientation: SPR reads the build-up and loss of mass on a sensor chip optically.

Assay [3] has as its target T3, human CD22-ECD-His protein (human, UniProt P20273 20-687).
T3 construct: Recombinant, from HEK293E cells; also called hCD22-ECD-His; human CD22-His protein; not shown: His tag
T3 sequence: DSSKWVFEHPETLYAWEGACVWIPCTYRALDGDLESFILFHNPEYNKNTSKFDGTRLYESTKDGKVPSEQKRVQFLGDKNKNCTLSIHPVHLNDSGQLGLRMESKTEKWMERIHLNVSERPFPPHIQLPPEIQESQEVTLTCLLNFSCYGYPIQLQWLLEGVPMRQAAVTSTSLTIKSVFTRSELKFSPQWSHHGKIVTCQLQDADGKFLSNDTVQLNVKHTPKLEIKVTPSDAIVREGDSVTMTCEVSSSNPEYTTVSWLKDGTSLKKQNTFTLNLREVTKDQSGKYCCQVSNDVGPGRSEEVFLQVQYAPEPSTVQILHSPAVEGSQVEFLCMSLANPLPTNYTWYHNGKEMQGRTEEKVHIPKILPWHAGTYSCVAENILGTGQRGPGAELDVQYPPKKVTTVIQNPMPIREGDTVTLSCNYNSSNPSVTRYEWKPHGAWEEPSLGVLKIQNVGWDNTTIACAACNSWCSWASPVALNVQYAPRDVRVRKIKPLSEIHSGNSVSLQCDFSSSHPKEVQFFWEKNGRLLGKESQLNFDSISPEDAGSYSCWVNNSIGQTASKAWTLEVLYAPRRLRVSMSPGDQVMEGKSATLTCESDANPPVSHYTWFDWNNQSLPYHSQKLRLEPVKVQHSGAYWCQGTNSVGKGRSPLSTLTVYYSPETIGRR
Put plainly: SPR (Biacore), antibody captured on Protein A chip, CD22-ECD-His in solution. Summed up: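 Antibody captured on Protein A chip, then human CD22-ECD-His injected for 240 s at 30 μL/min, 5 concentrations from 200 nM (1:1 dilution), dissociation up to 600 s, in HBS-EP+ at 25° C. Responses double-referenced; apparent KD and kinetic constants fitted to a Langmuir 1:1 model.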

What is called Kd is a measure of binding affinity in units of concentration. The term koff denotes the first-order rate constant of dissociation. For orientation: kon means a measure of how fast the partners come together.

B1: F2.173.9 (antibody, human IgG1, lambda, V domains shown)
VH: EVQLVESGGDLVKPGESLKLSCEASGFTFSNYAMSWVRQTPDRRLEWVATISSIGSFTYYSDSVKGRFTISRDNVKSTLHLQMNNLKSGDTAIYFCARLGVYFDSWGQGTTLTVSS
VL: QLVLTQSSSASFSLGASAKLTCTLSSQHSTYTIEWYQQQPHKPPKFVMEIKKDGSHYTGDGIPDRFSGSSSGADRYLSISNIQPEDETIYICGVSDMIKDQFVYVFGGGTKVTVLG
notes: Chimeric IgG1 lambda
For B1, in assay [1], the binding result was “no binding”. In assay [2], the Kd was determined as 46.7 nM, the koff came out at 0.000883 s⁻¹ and the kon was 18900 M⁻¹ s⁻¹. Also, in assay [3], the Kd was found to be 4.74 nM, the koff was found to be 0.000232 s⁻¹ and the kon is 49000 M⁻¹ s⁻¹.

B2: F2.99.1 (antibody, human IgG1, lambda, V domains shown)
VH: QVTLKESGPGILQPSQTLSLTCSFSGFSLSTFPMGVGWIRQPSGKGLEWLAHIWWDDDEYYNPVLKSRLTISKDTSKKQVYLRIANVDTVDTATYYCTRANWDRWYFDVWGTGTTVTVSS
VL: QLVLTQSSSASFSLGASAKLTCTLSRQHSAYTIEWYQQQPLKPPKYVMEVKKDGSHSTGDGIPDRFSGSSSGADRYLSISNIQPEDEAIYICGVGDTIKEHFVFGGGTKVTVLG
notes: Chimeric IgG1 lambda
Turning to B2, the binding result in assay [1] was “no binding”. In addition, in assay [2], the affinity, expressed as Kd, was 14.5 nM; the off-rate constant (koff) came out at 0.000545 s⁻¹; the kon is 37600 M⁻¹ s⁻¹. Also, in assay [3], the Kd came out at 1.55 nM, the koff came out at 0.000162 s⁻¹ and the association rate constant (kon) came out at 105000 M⁻¹ s⁻¹.

B3: F1.120.15 (antibody, human IgG1, kappa, V domains shown)
VH: QVQLQQSGPELVKPGASVKISCKASGNAFSNSWMNWVKQRPGKGLEWIGRVYSEDGDTQYNGKFRDKATLTADRSTSTAYMQLSSLTSEDSAVYFCARWLIYYGTYGAMDYWGQGTSVTVSS
VL: DIQMTQTTSSLSASLGDRVTISCRASQDINNYLNWYHQKPDGTVKLLIYFTSRPYSGVPSRFSGSGSGTDYSLTISNLEQEDIATYFCQQGNTLPWTFGGGTKLEIKR
notes: Chimeric IgG1 kappa
With B3, the binding result in assay [1] is on record as “no binding”. Also, in assay [2], binding was characterised by a dissociation constant (Kd) of 15.1 nM, the koff is 0.000637 s⁻¹ and the on-rate (kon) was determined as 42100 M⁻¹ s⁻¹. In assay [3], this molecule returned a Kd of 19.5 nM, a koff of 0.000232 s⁻¹ and a kon of 11900 M⁻¹ s⁻¹.

B4: HA22-hIgG1 (antibody, V domains shown)
VH: EVQLVESGGGLVKPGGSLKLSCAASGFAFSIYDMSWVRQTPEKCLEWVAYISSGGGTTYYPDTVKGRFTISRDNAKNTLYLQMSSLKSEDTAMYYCARHSGYGTHWGVLFAYWGQGTLVTVSA
VL: DIQMTQTTSSLSASLGDRVTISCRASQDISNYLNWYQQKPDGTVKLLIYYTSILHSGVPSRFSGSGSGTDYSLTISNLEQEDFATYFCQQGNTLPWTFGCGTKLEIKR
In the case of B4, the binding result in assay [1] is listed as “no binding”. In assay [2], this molecule displayed a dissociation constant (Kd) of 3.41 nM, a koff of 0.000234 s⁻¹ and a kon of 68600 M⁻¹ s⁻¹. In assay [3], the Kd worked out at 1.33 nM, the koff came out at 8.96e-05 s⁻¹ and the kon was found to be 67400 M⁻¹ s⁻¹.

B5: F2.205.9 (antibody, human IgG1, lambda, V domains shown)
VH: QVTLKESGPGILQPSQTLSLTCSFSGFSLSTSGMGVGWIRQPSGKGLEWLAHIWWDDDEYYNPALKSRLTISKDTSKNQVFLKIANVDTADTATYYCARISIPYGYYDWFFDVWGTGTTVTVSA
VL: QAVVTQESALTTSPGETVTLTCRSSTGAVTTRNYANWVQEKPDHLFTGLIGGTNNRAPGVPARFSGSLIGDKAALTITGAQTEDEAIYFCALWYSNHFIFGSGTKVTVLG
notes: Chimeric IgG1 lambda
Turning to B5, the binding result in assay [1] was “no binding”. In assay [2], this molecule showed a Kd of 10.3 nM, a koff of 0.0014 s⁻¹ and a kon of 135000 M⁻¹ s⁻¹. In assay [3], this molecule yielded a Kd of 1.57 nM, a koff of 0.000386 s⁻¹ and a kon of 246000 M⁻¹ s⁻¹.

B6: F1.172.13 (antibody, human IgG1, kappa, V domains shown)
VH: QVTLKESGPGILQSSQTLSLTCSFSGFSLSTSGMGVSWIRQPSGKGLEWLAHIYWDDDKRYNPSLKSRLTISKDTSRNQVFLKITSVDTADTATYYCARAPPPNWDEYYFDYWGQGTTLTVSS
VL: DIQMTQSPASLSASVGETVTITCRASGNIHNSLAWYQQKQGKSPQLLVHNAKTLADGVPSRFSGSGSGTQYSLKINSLQPEDFGSYYCQHFWSTPPFGGGTKLEIKR
notes: Chimeric IgG1 kappa
Take B6: the binding result in assay [1] is reported as “no binding”. In assay [2], this molecule had a Kd of 6.9 nM, an off-rate constant (koff) of 0.00138 s⁻¹ and a kon of 200000 M⁻¹ s⁻¹. Besides, in assay [3], the Kd turned out to be 17.6 nM, the koff came out at 0.00539 s⁻¹ and the kon amounted to 306000 M⁻¹ s⁻¹.
